{"source": "the nanobody polyreactivity screen of Harvey et al. (2022)", "data": [{"experiment": "yeast display, Sf9 membrane polyspecificity reagent, FACS + sequencing; frameworks hold sequencing errors", "how_it_was_run": "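Sorting gates, low and high (top ~1%), were placed on anti-HA fluorescence to track expression and on streptavidin fluorescence to track reagent binding. A clone's polyreactivity label is taken from the gate it came out of. The reagent was 10% biotinylated, detergent-solubilized Sf9 membrane, applied for 1 hour at 4 °C to galactose-induced yeast display cells.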", "values": [{"sequence": "QVQIVESGGLLVQAGGSLRLSCAASGFIFNPNAMGWYRQAPGKERELVAAIRWSGGSTYYADSVQGRFTISRDNEKNTVYLQMNSLKPDDTAVYYCAANPRTTRYGRGYWGQGTQVSVSS", "polyreactivity (PSR sort gate)": "high polyreactivity"}, {"sequence": "QVQIVESGGRLVQAGGSLRLSCAASGSIFVWYAMGWYRQAPGKERELVSRITSGGRTNYADSVKGRFTISRDNAKNTVYLQMNSLKPEDTAVYYCAAGRVSWSPYYYWGQATQVTVSS", "polyreactivity (PSR sort gate)": "high polyreactivity"}, {"sequence": "QVQIVESGRGLVQAGGSLRLTCAASGINFHFNDMGWYRQAPRKQRELVAAIDSTGSTNYADSVKGRFTISRDNAKNTVYLQMNSLKPEDTAVYYCAVLNHRVDSVLTRYYYWGQGTQVTVSS", "polyreactivity (PSR sort gate)": "low polyreactivity"}, {"sequence": "QVQIVESRGGLVQAGGSLRLSCAASGSTIPYYAMGRYRQAPGKERELVARIRWNGDSTYYADSVKGRFTISRDIAKNTVYLQINSLKPEDTAVYYCARQGYTLYRTRNRYDYWGKGTQVTVSS", "polyreactivity (PSR sort gate)": "high polyreactivity"}, {"sequence": "QVQIVESRGGLVQAGGSLRLSCDASGRTILIYAMGWYRQAPRKERELVAAITSGGRTKYADSVKGRFTISRDNGKNTVFLQMNSQKPEDTAVYYCAAESNRLRYYYWGQGSQVTVSS", "polyreactivity (PSR sort gate)": "high polyreactivity"}, {"sequence": "QVQIVETGGGLVQAGGSLRLSCAASGFIFSNYARGRYRQAPGKERELVAAISWSGGRTYYADSVKGRFTISRDNAKNSVYLQMNSLKPEDTAVYYCATRYGSASGREYEYWGQGTQVTVSS", "polyreactivity (PSR sort gate)": "high polyreactivity"}, {"sequence": "QVQIVHSGGGLVQAGGSLRLSCAASGRTIGGNAMGWYRQAPGKEWELVAAISYSDGSTYYADSVKGRFTISRDNAKNTVYLQMNSLKPEDTAVYYCAADRYAILLYAEDYWGQGTQVTVSS", "polyreactivity (PSR sort gate)": "low polyreactivity"}, {"sequence": "QVQIVQSGGGLVQAGGSLRLSCAASGSTITYNAMGWYRQAPGKERELVAAITVSDGSTYYADSVKGRFTISRDNAKNTVYLQMNSLKPEDTAVYYCNAYAVYLRYLWYDFWGQGTQVTVSS", "polyreactivity (PSR sort gate)": "low polyreactivity"}, {"sequence": "QVQLAESGGCLVQAGGSLRLSCAASGIIFYFYAMGWYRPAPGKERELVAAISGTGGRTYYADSVKGRFTISRDNAKNTVSLQMNSLKPDDTAVYYCNADDTPVPSIRFDYWGQGTQVTVSS", "polyreactivity (PSR sort gate)": "low polyreactivity"}, {"sequence": "QVQLAESGGGLVQAGGSLRLSCAASGRIFAFYAMGWYRQAPGKERELVAIISSAGRPYYADSVKGRFTISRDNAKYTVYLQMNSLKREDTAVYYCAAGGRARTYYYWGQGTQVTVSS", "polyreactivity (PSR sort gate)": "high polyreactivity"}, {"sequence": "QVQLAESGGGLVQAGGSLRLSCAASGRIFARNAMGWYRQAPGKERELVAAISWSGGRTYYADSVKGRFTISRDNAKNTVYLQMNSLKPEDTAVYYCAADHYPWWAWEFDYWGQGTQVTVSS", "polyreactivity (PSR sort gate)": "low polyreactivity"}, {"sequence": "QVQLAESGGGLVQAGGSLRLSCAPSGSTFEINAMGWYRQAPGKETELVAAISRGGSTNYADSVKGRFSISRDNAKNTVYLQMNSLKPEDSAVYDCARDPRFRYYRVSYANDQEFEYSGQGTQVTVSS", "polyreactivity (PSR sort gate)": "high polyreactivity"}, {"sequence": "QVQLAESGGGLVQAGGSLRLSSAASGRTIGFNGMGWYRQAPGKERELVAAITWNGDSTYADSVKGRFTISRDNAKNTVYLQMNSLKPDDTAVYYCGAEVVAQMNYWGQGTQVTVSS", "polyreactivity (PSR sort gate)": "low polyreactivity"}, {"sequence": "QVQLEDAGGGLVQAGGSLRLSCAASGRIIGWYTIGRYRQAPGKERELVATSSSSGASTYYADSVKGRFTISRDNAKNSVYFQMNSLKPEDTGVYYCAAQYYPYSFAHRYGYWGQGSQVTVSS", "polyreactivity (PSR sort gate)": "high polyreactivity"}, {"sequence": "QVQLEDSGGGLDQAGGSLRLSCAASGITFIRYAMVWYRQAPGKERELVAAIPTSGSSKFYADSVKGRFTISRDNAKNTVYLQMNSLKPEDTAVYYCAAVFRWARLYTFYGSKVDYWGQGTQVTVSS", "polyreactivity (PSR sort gate)": "high polyreactivity"}, {"sequence": "QVQLEDSGGGLVQAGGRLRLSCAASGSIFFSYAMGWYRQAPGTERELVAGINWSGGSTYADCVKGRFTISRDNAKNTVYLQMNSQKPEDTAVYYCAAKYYSERSRYHYWGLGTQVTVSS", "polyreactivity (PSR sort gate)": "low polyreactivity"}, {"sequence": "QVQLEDSGGGLVQAGGSLPLSCAASGGTFTDYAMGWYRQAPGKERELVAAISSVGSTNYADSVKGRFTISRDNAKNTVYLQMNSLKPEDTAVYYCAVDYGRAVQVDSITYDFNYWGQGTQVNVSS", "polyreactivity (PSR sort gate)": "low polyreactivity"}, {"sequence": "QVQLEDSGGGLVQAGGSLRLSCAASGSTFLYYARGWYRQAPGKERELVAAITSGGSTYYADSVKGRFTISRDNAKNTVYLQMNSLKPEDTAVYYCAAASRRGYYYWGQGTQVTVSS", "polyreactivity (PSR sort gate)": "high polyreactivity"}, {"sequence": "QVQLEDSGGGLVQAGGTLRLRCAASGITFGTNDMGWYRKAPGKETELVAAIDGSGETYYADSVKGRFTISRDNAKNTVYLLMNSLKPVDTAVYYCAADVIYWFSGEYDYWGQGTQVIVSS", "polyreactivity (PSR sort gate)": "low polyreactivity"}, {"sequence": "QVQLEDSGRGLFQAGGSLRLSCAASGSIVALYTMGWYRQAPGKEREFVAGIRTGGSTIYADSVKGRFTISRDNAKNTVYLQMNSRKPEDTPVYYDDWGQGTQVTVSS", "polyreactivity (PSR sort gate)": "low polyreactivity"}, {"sequence": "QVQLEESAGGIVQAGGSLRFSCAASGSTISAYDIGCYRQEPGKEWELVAAITWIGGNTYYADSVKGRFTISRDTAKNTVYLQMNSLKPEDTEFYYCAAEEVPYDRDMDYWGQGTQVTVSS", "polyreactivity (PSR sort gate)": "low polyreactivity"}, {"sequence": "QVQLEESAGRLVQAGGSLRLSCAASGFIISPYAMGWYRQAPGKERELVAAISWSGVYTYYADTVKGRFTISRDNAKNTVYLQMNSLKPEDSAVYYCATYGTVYYWGQGTQVTVST", "polyreactivity (PSR sort gate)": "high polyreactivity"}, {"sequence": "QVQLEESAGRLVQAGGSLRLSCAASGYTFGYYAMGWYRQAPGKERQLVAAISWRGARTNYADSVKGRFTISRDNAKNTVYLQMNSLKPEDTAVYYCAAGYYYGYPPRDYWGQGTQVTVSS", "polyreactivity (PSR sort gate)": "high polyreactivity"}, {"sequence": "QVQLEESAGRLVQARGSLRLSCAASGSTFGYNAMGWDSQAPGKARELVAALTRRGGRTYYADSVKGRFTISRDNAKNTVYLQMNSLKPEDTAVYYCAATSRGSGQRPGEAIIDYYYWGQGTQVTVSW", "polyreactivity (PSR sort gate)": "high polyreactivity"}, {"sequence": "QVQLEESCGGLVQAGGSHRLSCAASGSTIYNNAMGWYRQAPRKERELVAAISSGGGITYYADSVKGRFTISRDNAKNSVYLQMNSLKPEDTAVYYCNARRIYLGYNYWGQGTQVTVSS", "polyreactivity (PSR sort gate)": "high polyreactivity"}, {"sequence": "QVQLEESCGGLVQAGGSLRLSCAASGPIIRAYAMGWYRQAPGKERELVAAITRSGGSTYYADSVKGRFTISLDNAKNTVYLQMNSLKPEDTAVYYCNARTRYDDGYDSWGQGTQVTVSS", "polyreactivity (PSR sort gate)": "high polyreactivity"}, {"sequence": "QVQLEESGAGLVQAGGSLRLSCAASGRTFWFYTMGLYRQAPGKERELVAAISSAGSTNYADSVKGRFTISRDNAKNTVYLQMNSLKPEDTAVYYCNARFPVGPSEDAVWYYPKYDYWGQGTQVTVSS", "polyreactivity (PSR sort gate)": "low polyreactivity"}, {"sequence": "QVQLEESGAGLVQAGGSLRLSCAASGSIFNLYAMGWYRQAPGKEMELVAAINWSGGSTYYADSVKGRFTISRDNAKNTVYLQMNSLKPEDTAVYYCAADAYSTYYGYEGDYWGQGTQVTVSS", "polyreactivity (PSR sort gate)": "low polyreactivity"}, {"sequence": "QVQLEESGAGLVQAGGSLRLSCAASVFTFCCTTMGRSRPAPGKESELVATISRTGGITYYADSVKGRFTISRDNAKNTVNLQMNSLKPEDTAVYYCILRYYWGQVTQVTVSS", "polyreactivity (PSR sort gate)": "high polyreactivity"}, {"sequence": "QVQLEESGAGLVQAGGSLRLTCAASGSTFYSNVMGWYRQAPGKEREFVAGISGSGGSTYYADSVKGRFTISRDNGNISVYLLINSLKPEDPAVYYCKAVRYPRLLYYWGQGTQVNVSS", "polyreactivity (PSR sort gate)": "high polyreactivity"}, {"sequence": "QVQLEESGGCLVQAGGSLRLSCAASGFTFRSYAMGWYRQAPGKERELVAAISSGGSTYYADSVKGRFTISRDNAKITVYLKMNSLKPEDTAVYYCAARRYYGYGHWGQGTHVTVSS", "polyreactivity (PSR sort gate)": "high polyreactivity"}, {"sequence": "QVQLEESGGCLVQAGGSLRLSCAASGSTFVYNVMGWYRQAPGKERELVAAITSGVRTYYADSVKGRFTISRDNAKNTVYLQMNSLKPEDTAGYYCATGWRYAKYYYWGQGTQVTVSS", "polyreactivity (PSR sort gate)": "high polyreactivity"}, {"sequence": "QVQLEESGGGIVQAGGSLRLSCAASGRIFRIYAMGWYRKAPGKERELVARITYSGGSTYYADSVKGRFTISRDKAKNTVYLQMNSLKPEDTAVFYCAADWLFYQYGYWGQGTQVTVSS", "polyreactivity (PSR sort gate)": "low polyreactivity"}, {"sequence": "QVQLEESGGGLCQAGGSLRLSCAPSGSIFVSNAMVCYRQAPGKERELVAAITYNGGRTFYADSVKGRFTISRDNAKNTVYLQLNSLKPEDTAVYYFAADGSWHGYGYWGQGTQVTVSS", "polyreactivity (PSR sort gate)": "low polyreactivity"}, {"sequence": "QVQLEESGGGLDQAGGSLRLSCAASGSIFYYYAMGWYRQAPGKERELVAVIDFSGASTSYAVSVKGRFTISRDNAKITVYLQMNSLKPEDTAVYYCAADRRSKYDYWGQGTQVTVSS", "polyreactivity (PSR sort gate)": "low polyreactivity"}, {"sequence": "QVQLEESGGGLVQAGGRLRLSCAASGRTFSTYAMGWYRQATGKERELVAAITRRGGSTSYADSVKGRFTISRDNANNTVYLQMNSLNPEDTAVYYCARENPGDSYYDYWGQGTQVTVSS", "polyreactivity (PSR sort gate)": "low polyreactivity"}, {"sequence": "QVQLEESGGGLVQAGGRLRLSCAASGSTFVRSVMGSYRAAPGKERELVAAISEGGGSTYYADSVKGRFTISRDNAKNTVYLQMNSLKPEDTAVYYCAAEGYFRYWYGTIQYDYWGQGTQVTVSS", "polyreactivity (PSR sort gate)": "high polyreactivity"}, {"sequence": "QVQLEESGGGLVQAGGSHRLSCAASGFTFIDNAMGSYRQAPGKERELVAAISISGGRTYYADSVKGRFTISRDNAKNTVYLQMNSLKPEDTAVYYCAAGKHRRDDYWGQGTQVTVSS", "polyreactivity (PSR sort gate)": "high polyreactivity"}, {"sequence": "QVQLEESGGGLVQAGGSIRLSCAASGRTIVYNAMGWYRQAPGNERELVDAIDGGGDRTYYADSVKGRFTISRDNAKITVYLQMNRLKPEDTAVYYCARDPGDTYYYSYPEGDYWGQGTQVSVSS", "polyreactivity (PSR sort gate)": "low polyreactivity"}, {"sequence": "QVQLEESGGGLVQAGGSLRFSFAASGSIFRYYAMGWYRQAPGKERELVANISRGCSTYYADSVKGRFTISRDNAKKTVYLQMNSLKPDDTAVYYCAADISERYDYWGQGTQVTVSS", "polyreactivity (PSR sort gate)": "high polyreactivity"}, {"sequence": "QVQLEESGGGLVQAGGSLRISCAASVRILSWYAIGWYRQAPGKERELVAAISVRGSTYYADSVKGRFTISRDNAKNTVYLQMNSLKPDDTAVYYSNRVWLQASTTIVVSSRRLYYWGLGTQVTVSS", "polyreactivity (PSR sort gate)": "high polyreactivity"}, {"sequence": "QVQLEESGGGLVQAGGSLRLSCAASGFIFDYYAMGWYRQAPGKERELVAAISSSGGSTYADSVKGRFTISRDNAKNTVYLQMNSLKPEDTAVYYCAADWYKRPPYDYWGQGTQVTVSS", "polyreactivity (PSR sort gate)": "low polyreactivity"}, {"sequence": "QVQLEESGGGLVQAGGSLRLSCAASGFIFGLNAMGWYRQAPGKERELVAGIRSGSSTNYADSVKGRFTISRDNAKNTVYLQMNSLKPEDTAVYYCATEGYWVYGFDDEYWGQGTQVTVSS", "polyreactivity (PSR sort gate)": "low polyreactivity"}]}]}
